Assay results: article PMC7337405, “A secreted LysM effector protects fungal hyphae through chitin-dependent homodimer polymerization” (PLoS Pathogens, 2020)

What was measured:
Mg1LysM = target: T1, Mg1LysM (Zymoseptoria tritici, UniProt F9XHX3); assay: X-ray crystal structure of the complex ([…] Å); assay type: binding; settings: P. pastoris-produced protein; ligand co-purified from host cell wall; site between two protomers of neighbouring homodimers
T1 construct: mature single-LysM effector, signal peptide absent; ITC: E. coli Origami pET-SUMO, His-SUMO cut off by ULP1; crystal: P. pastoris GS115, His-FLAG tag; ligand-independent homodimer; chitin site formed by two protomers of neighbouring homodimers

(GlcNAc)6 = assay: ITC

Molecule | X-ray crystal structure of the complex (2.41 Å) (Mg1LysM) | other: stoichiometry N ((GlcNAc)6)
CC(=O)N[C@H]1[C@H](O[C@H]2[C@H](O)[C@@H](NC(C)=O)C(O)O[C@@H]2CO)O[C@H](CO)[C@@H](O[C@@H]2O[C@H](CO)[C@@H](O)[C@H](O)[C@H]2NC(C)=O)[C@@H]1O (stereo partly shown) [chitin trimer] | well-defined electron density for a single chitin trimer bound to one monomer of the a.u. | –
Mg1LysM (Zymoseptoria tritici LysM effector), wild type, produced in E. coli (from UniProt A0A1X7S147) D54A | – | 0.902
Mg1LysM (Zymoseptoria tritici LysM effector), wild type, produced in E. coli (from UniProt A0A1X7S147) K31A | – | 0.97
Mg1LysM (Zymoseptoria tritici LysM effector), wild type, produced in E. coli (from UniProt A0A1X7S147) T28R | – | 0.956
